Substitutions are numbered along the chain they refer to. Names may count otherwise. Blank lines part the entries; values can stand above or below the binder they belong to.
Tests used:
[1] = limited trypsin digestion of plasma membranes ± α-factor, western blot; settings: glycan lost; control: epitope-tagged receptors with intact sites
[2] = target: T1, Ste2-F204S (S. cerevisiae) (UniProt D6VTK4)
T1 sequence: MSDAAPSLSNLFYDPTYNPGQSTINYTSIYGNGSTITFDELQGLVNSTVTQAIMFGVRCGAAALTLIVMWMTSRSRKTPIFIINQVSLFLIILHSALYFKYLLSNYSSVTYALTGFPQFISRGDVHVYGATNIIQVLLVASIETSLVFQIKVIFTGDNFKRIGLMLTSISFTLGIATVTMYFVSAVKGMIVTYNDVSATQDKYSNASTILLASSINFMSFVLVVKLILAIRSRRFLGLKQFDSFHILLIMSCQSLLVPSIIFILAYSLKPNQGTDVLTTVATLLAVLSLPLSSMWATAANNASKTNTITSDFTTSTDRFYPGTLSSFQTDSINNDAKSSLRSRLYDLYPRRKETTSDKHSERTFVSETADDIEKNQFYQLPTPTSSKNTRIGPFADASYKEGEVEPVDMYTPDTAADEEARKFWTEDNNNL

B1: α-factor receptor (Ste2): T7-Ste2-N25Q,N32Q (protein)
parent chain: T1 sequence with S204F
structure_or_conformation [1]: no change

endocytosis complementation assay: percent of co-expressing cells with one or more GFP fluorescent foci after α-factor treatment (fluorescence microscopy) [2]: > 80%
B2: Ste2-T326-GFP (receptor)
chain: MSDAAPSLSNLFYDPTYNPGQSTINYTSIYGNGSTITFDELQGLVNSTVTQAIMFGVRCGAAALTLIVMWMTSRSRKTPIFIINQVSLFLIILHSALYFKYLLSNYSSVTYALTGFPQFISRGDVHVYGATNIIQVLLVASIETSLVFQIKVIFTGDNFKRIGLMLTSISFTLGIATVTMYFVSAVKGMIVTYNDVSATQDKYFNASTILLASSINFMSFVLVVKLILAIRSRRFLGLKQFDSFHILLIMSCQSLLVPSIIFILAYSLKPNQGTDVLTTVATLLAVLSLPLSSMWATAANNASKTNTITSDFTTSTDRFYPGTLSS
